Data from US20120201746A1 (AbbVie / Abbott, published 2012).
Residue numbers refer to the chain shown, from its start. Numbers in names are those of the source. Like-named read-outs stand apart in the source and are kept apart here. One block for each binder: values may come before it.

Assays:
[1] = target: T1, Neonatal Fc receptor (FcRn) on CHO-FcRnGPI cells; assay: flow cytometry on CHO-FcRnGPI cells, pH 6.4
T1 construct: whole, on cells; also called FcRn receptor
Description: (§1) CHO-FcRnGPI cells (Stable FcRn receptor expressor) and CHO-pBudl l cells (non-FcRn expressor) were aliquotted into 96-well plates at 1×10⁵ cells/well. Cells were resuspended in 150 μl FACS buffer. Anti-c-Met Ab and half-Ig binding proteins were diluted to 100 μg/ml in FACS buffer pH 6.4 and pH 7.4. 30 μl of diluted antibody or half-Ig binding protein was added to each well and incubated on ice for 1 hour. Following 2 washes with FACS buffer, 50 μl of secondary antibody R-phycoerythrin-conjugated AfiniPure F(ab′)₂ Fragment goat anti-human IgG (Jackson ImmunoResearch®, West Grove, Pa.) diluted in FACS buffer pH 6.4 or pH7.4 was added. The mixture was incubated for 30 min on ice. The cells were resuspended in 100 μl PBS with 1% FBS (Invitrogen®, Carlsbad, Calif.) and 2 μg/ml propidium iodide (Invitrogen®, Carlsbad, Calif.) of the corresponding pH. Final FACS data were acquired on a FACScan (Becton Dickinson, Franklin Lakes, N.J.).

biotin-labeled c-Met [2] = target: T2, biotin-labeled c-Met (UniProt P08581 25-932, limits assumed, biotin-labeled); assay: ELISA, biotin-labeled c-Met detected with streptavidin-HRP; parental full antibody
Description: (§2) c-Met binding ELISA was performed to characterize the antigen binding property of anti-c-Met half-Igs. 96-well ELISA plates were coated with 100 μl/well 5 μg/ml anti-mouse IgG Fc in PBS at 4° C. overnight. After 3 washes with PBS/0.05% Tween®20, the plates were blocked with 5% milk in PBS for 1 hour at room temperature. After another 3 washes with PBS/0.05% Tween®20, 100 μl c-Met antibody or half-Ig was added to each well followed by an incubation of 1 hour at room temperature. Binding biotin-labeled c-Met was detected by Streptavidin-horseradish peroxidase (KPL, Gaithersburg, Md.) and tetramethylbenzidine (Thermo Scientific, Rockford, Ill.). Final absorbances were acquired at 450 nm after stopping the reactions with 2 mol/L H₂SO₄.

[3] = target: T1, Neonatal Fc receptor (FcRn) on …; assay: flow cytometry on CHO-FcRnGPI cells, pH 6.4; remark: listed apart in the source
Description: as §1

biotin-labeled c-Met [4] = target: T2, biotin-labeled c-Met; assay: ELISA, biotin-labeled c-Met detected with streptavidin-HRP; half-Ig (cMet-Mut6)
Description: as §2

Recombinant Human IL-1β [5] = target: T3, Recombinant Human IL-1β (human, UniProt P01584 117-269); assay: SPR (BIAcore)
T3 construct: also called IL-1b
Description: (§3) The BIAcore® assay (BIAcore®, Inc, Piscataway, N.J.) determines the affinity of antibodies with kinetic measurements of on-rate and off-rate constants. Binding of antibodies to a target antigen (for example, a purified recombinant target antigen) is determined by surface plasmon resonance-based measurements with a BIAcore® 1000 or 3000 instrument (BIAcore® AB, Uppsala, Sweden) using running HBS-EP (10 mM HEPES [pH 7.4], 150 mM NaCl, 3 mM EDTA, and 0.005% surfactant P20) at 25° C. […] Unreacted moieties on the biosensor surface are blocked with ethanolamine. Modified carboxymethyl dextran surface in flowcell 2 and 4 is used as a reaction surface. Unmodified carboxymethyl dextran without goat anti-mouse IgG in flow cell 1 and 3 is used as the reference surface. For kinetic analysis, rate equations derived from the 1:1 Langmuir binding model are fitted simultaneously to association and dissociation phases of all eight injections (using global fit analysis) with the use of Biaevaluation 4.0.1 software. Purified antibodies are diluted in HEPES-buffered saline for capture across goat anti-mouse IgG specific reaction surfaces. […] The association and dissociation rate constants, kₒₙ (M⁻¹s⁻¹) and koff (s⁻¹), are determined under a continuous flow rate of 25 μl/minute. Rate constants are derived by making kinetic binding measurements at different antigen concentrations ranging from 10-200 nM. The equilibrium dissociation constant (M) of the reaction between antibodies and the target antigen is then calculated from the kinetic rate constants by the following formula: KD=koff/kₒₙ. Binding is recorded as a function of time and kinetic rate constants are calculated.

Recombinant Human IL-1β [6] = target: T3, Recombinant Human IL-1β; assay: cell-based or functional assay
Recombinant Human IL-1β [7] = target: T3, Recombinant Human IL-1β; assay: SPR (BIAcore); *off-rate at the limit of dissociation after 1 hour
Description: The BIAcore® assay (BIAcore®, Inc, Piscataway, N.J.) determines the affinity of antibodies with kinetic measurements of on-rate and off-rate constants. Binding of antibodies to a target antigen (for example, a purified recombinant target antigen) is determined by surface plasmon resonance-based measurements with a BIAcore® 1000 or 3000 instrument (BIAcore® AB, Uppsala, Sweden) using running HBS-EP (10 mM HEPES [pH 7.4], 150 mM NaCl, 3 mM EDTA, and 0.005% surfactant P20) at 25° C. […] Unreacted moieties on the biosensor surface are blocked with ethanolamine. Modified carboxymethyl dextran surface in flowcell 2 and 4 is used as a reaction surface. Unmodified carboxymethyl dextran without goat anti-mouse IgG in flow cell 1 and 3 is used as the reference surface. […] The association and dissociation rate constants, kₒₙ (M⁻¹s⁻¹) and koff (s⁻¹), are determined under a continuous flow rate of 25 μl/minute. […] The equilibrium dissociation constant (M) of the reaction between antibodies and the target antigen is then calculated from the kinetic rate constants by the following formula: KD=koff/kₒₙ. Binding is recorded as a function of time and kinetic rate constants are calculated.

[8] = target: Recombinant Human TNF-α/TNFSF1A (human, UniProt P01375 77-233); assay: SPR (BIAcore)
Description: as §3

human IL-12 [9] = target: T4, human IL-12 (human, UniProt P29459 23-219; P29460 23-328); assay: SPR (BIAcore)
T4 construct: Human is stated for the bioassay; also called rhIL-12
T4 sequence (looked up) 1: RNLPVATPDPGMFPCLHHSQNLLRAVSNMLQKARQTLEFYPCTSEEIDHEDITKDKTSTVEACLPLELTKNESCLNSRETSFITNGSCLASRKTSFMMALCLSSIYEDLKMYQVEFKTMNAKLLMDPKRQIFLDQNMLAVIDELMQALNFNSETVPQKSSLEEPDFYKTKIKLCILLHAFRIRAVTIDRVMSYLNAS
T4 sequence (looked up) 2: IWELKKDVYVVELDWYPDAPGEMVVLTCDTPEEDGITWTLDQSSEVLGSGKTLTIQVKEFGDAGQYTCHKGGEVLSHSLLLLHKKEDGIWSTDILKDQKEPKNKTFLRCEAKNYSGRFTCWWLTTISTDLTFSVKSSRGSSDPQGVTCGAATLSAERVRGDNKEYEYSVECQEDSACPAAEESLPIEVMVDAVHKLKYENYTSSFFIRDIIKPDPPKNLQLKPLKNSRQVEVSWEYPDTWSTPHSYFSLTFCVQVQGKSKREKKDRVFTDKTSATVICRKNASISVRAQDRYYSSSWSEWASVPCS
Description: as §3

recombinant human IL-18 [10] = target: T5, recombinant human IL-18 (human, UniProt Q14116 37-193); assay: SPR (BIAcore)
T5 construct: Human is stated for the KG-1 bioassay; also called rhIL-18; rIL-18
Description: as §3

human IL-12 [11] = target: T4, human IL-12; assay: cell-based or functional assay
recombinant human IL-18 [12] = target: T5, recombinant human IL-18; assay: cell-based or functional assay
[13] = target: T6, cell surface CD28 on Jurkat E6-1 cells (UniProt P10747 19-220, limits assumed); assay: flow cytometry on Jurkat E6-1 cells
T6 construct: whole, on cells; Jurkat is a human cell line
Description: Jurkat E6-1 cells (ATCC, Manassas, Va.) were harvested and washed with PBS, and resuspended in ice cold PBS with 10% FCS (GIBCO®) at 2×10⁷ cells/ml. Anti-CD28 antibodies or half-Ig binding protein (1 μl) was added to tubes containing 100 μl of cell suspension, then incubated on ice for 30 min. The cells were washed 3 times and resuspended in ice cold PBS, then stained with PE labeled anti-human IgG1 antibody (Southern Biotech, Birmingham, Ala.) according to manufacturer's instructions. After secondary staining, the cells were washed and resuspended in ice cold PBS with 10% FCS. FACS analysis was performed on a FACScan (Becton Dickinson, Franklin Lakes, N.J.).

T2 sequence (P08581 25-932 limits assumed): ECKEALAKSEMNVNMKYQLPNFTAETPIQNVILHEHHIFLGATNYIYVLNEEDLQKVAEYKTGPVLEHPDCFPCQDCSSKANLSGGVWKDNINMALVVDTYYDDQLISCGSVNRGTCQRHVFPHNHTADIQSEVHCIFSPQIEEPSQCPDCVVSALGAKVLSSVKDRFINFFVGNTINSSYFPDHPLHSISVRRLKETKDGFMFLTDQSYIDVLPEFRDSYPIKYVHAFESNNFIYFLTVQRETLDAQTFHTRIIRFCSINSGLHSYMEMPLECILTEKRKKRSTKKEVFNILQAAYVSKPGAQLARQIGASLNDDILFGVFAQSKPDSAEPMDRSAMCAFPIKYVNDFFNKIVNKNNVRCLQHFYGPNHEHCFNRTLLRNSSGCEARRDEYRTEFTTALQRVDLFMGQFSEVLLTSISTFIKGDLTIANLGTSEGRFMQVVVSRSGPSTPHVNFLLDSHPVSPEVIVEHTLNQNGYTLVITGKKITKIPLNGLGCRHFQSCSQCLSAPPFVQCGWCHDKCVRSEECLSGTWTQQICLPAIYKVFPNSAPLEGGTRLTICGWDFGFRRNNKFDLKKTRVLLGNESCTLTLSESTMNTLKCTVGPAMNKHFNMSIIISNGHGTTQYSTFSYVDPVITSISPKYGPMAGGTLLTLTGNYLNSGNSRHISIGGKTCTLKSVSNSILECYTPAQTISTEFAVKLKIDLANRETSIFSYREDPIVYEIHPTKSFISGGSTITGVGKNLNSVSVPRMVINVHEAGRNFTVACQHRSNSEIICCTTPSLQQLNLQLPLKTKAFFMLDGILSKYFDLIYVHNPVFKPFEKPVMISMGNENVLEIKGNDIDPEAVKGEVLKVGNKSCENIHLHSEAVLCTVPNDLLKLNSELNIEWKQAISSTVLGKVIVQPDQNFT
Chain of Recombinant Human TNF-α/TNFSF1A (P01375 77-233 limits assumed): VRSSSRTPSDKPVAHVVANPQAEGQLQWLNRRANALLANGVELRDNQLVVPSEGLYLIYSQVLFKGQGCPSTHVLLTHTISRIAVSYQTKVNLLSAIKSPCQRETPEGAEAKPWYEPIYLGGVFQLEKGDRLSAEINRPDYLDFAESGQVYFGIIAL

B1: Anti-c-Met Ig (parental 5D5 anti-cMet antibody) (antibody, human IgG1, kappa)
heavy: not shown
light: DFMMSQSPSSLTVSVGEKVTVSCKSSQSLLYTSSQKNYLAWYQQKPGQSPKLLIYWASTRESGVPDRFTGSGSGTDFTLTITSVKADDLAVYYCQQYYAYPWTFGGGTKLELKRTVAAPSVFIFPPSDEQLKSGTASVVCLLNNFYPREAKVQWKVDNALQSGNSQESVTEQDSKDSTYSLSSTLTLSKADYEKHKVYACEVTHQGLSSPVTKSFNRGEC
notes: Mouse 5D5 variable domains cloned into human Cg1 (z, non-a) and human Ck vectors; also called cMet mAb; wild-type c-Met antibody
EC50 [1]: 51.8 nM
EC50 (biotin-labeled c-Met [2]): 0.36 nM

B2: cMet-Mut20 (antibody, human IgG1, kappa)
heavy: QVQLQQSGPELVRPGASVKMSCRASGYTFTSYWLHWVKQRPGQGLEWIGMIDPSNSDTRFNPNFKDKATLNVDRSSNTAYMLLSSLTSADSAVYYCATYGSYVSPLDYWGQGTSVTVSSASTKGPSVFPLAPSSKSTSGGTAALGCLVKDYFPEPVTVSWNSGALTSGVHTFPAVLQSSGLYSLSSVVTVPSSSLGTQTYICNVNHKPSNTKVDKKVEPKSCDKTHTSPPSPAPELLGGPSVFLFPPKPKDTLMISRTPEVTCVVVDVSHEDPEVKFNWYVDGVEVHNAKTKPREEQYNSTYRVVSVLTVLHQDWLNGKEYKCKVSNKALPAPIEKTISKAKGQPREPQVYTLPPSREEMTKNQVSLTCLVKGFYPSDIAVEWESNGQPENNYKTTPPVLDSDGSFFLYSDLTVDKSRWQQGNVFSCSVMHEALHNHYTQKSLSLSPGK
light: B1 light
notes: Half-Ig; CH3 K409D; 91.7 % half-Ig by SEC; also called cMetHC-Mut20
EC50 [3]: 1230 nM

B4: cMet-Mut18-QL (antibody, human IgG1, kappa)
heavy: B2 heavy with T252Q, F407R, D411K, M430L
light: B1 light
notes: also called cMetHC-Mut18-QL
EC50 [1]: 35 nM

B10: Anti-CD28 Ig (parental antibody 9.3) (antibody, human IgG1, kappa, V domains shown)
VH: QVKLQQSGAELVKPGASVRLSCKASGYTFTEYIIHWIKLRSGQGLEWIGWFYPGSNDIQYNAKFKGKATLTADKSSSTVYMELTGLTSEDSAVYFCARRDDFSGYDALPYWGQGTMVTVSS
VL: DIQMTQSPASLSVSVGETVTITCRTNENIYSNLAWYQQKQGKSPQLLIYAATHLVEGVPSRFSGSGSGTQYSLKITSLQSEDFGNYYCQHFWGTPCTFGGGTKLEIKR
notes: 9.3 variable domains on human Cg1 (z, non-a) and human Ck; also called anti-CD28 antibody 9.3
binding result [13]: binds

More lines, now with the values ahead:

EC50 [1]: 15 nM
B3: cMet-Mut18-GTv2 (antibody, human IgG1, kappa)
heavy: B2 heavy with T309A, E382A, F407R, D411K, N436A
light: B1 light
notes: also called cMetHC-Mut18-GTv2

EC50 (biotin-labeled c-Met [4]): 0.46 nM
B5: cMet-Mut6 half-Ig binding protein (antibody)
heavy: B2 heavy with C222S, S231C, P398A, F407R, Y409R
light: B1 light
notes: Half-Ig; CH3 P395A, F405R, Y407R, K409D; 100 % half-Ig by SEC; also called cMetHC-Mut6

Kd (Recombinant Human IL-1β [5]): 0.053 nM
kon (Recombinant Human IL-1β [5]): 120000 M⁻¹ s⁻¹
IL-1β Neutralization Assay EC50 nM; IL-8 release from MRC5 cells (Recombinant Human IL-1β [6]): 0.155 nM
koff (Recombinant Human IL-1β [7]): 6.4e-06 s⁻¹
B6: ½ IL1b DA1 Fc (Fc fusion)
chain: EVQLLESGGGLVQPGGSLRLSCAASGFTFADEGMMWVRQAPGKGLEWVSRITYSGKNTYYADSVKGRFTISRDNSKNTLYLQMNSLRAEDTAVYYCAKYTGRILGHHLFDYWGQGTLVTVSSEPKSSDKTHTSPPSPAPELLGGPSVFLFPPKPKDTLMISRTPEVTCVVVDVSHEDPEVKFNWYVDGVEVHNAKTKPREEQYNSTYRVVSVLTVLHQDWLNGKEYKCKVSNKALPAPIEKTISKAKGQPREPQVYTLPPSREEMTKNQVSLTCLVKGFYPSDIAVEWESNGQPENNYKTTPPVLDSDGSFRLYSKLTVDKSRWQQGNVFSCSVMHEALHNHYTQKSLSLSPGK
notes: Half domain antibody-Fc with Fc-Mut18; 82 % half-Ig by SEC; also called half IL1b DA1 Fc

Kd (Recombinant Human IL-1β [5]): 0.028 nM
kon (Recombinant Human IL-1β [5]): 170000 M⁻¹ s⁻¹
koff (Recombinant Human IL-1β [7]): 4.9e-06 s⁻¹
B7: ½ IL1b DA2 Fc (Fc fusion)
chain: B6 chain with D31E, G33S, M34W, T52G, Y53Q, S54D, A61R, D62E, S63D, L104M
notes: Half domain antibody-Fc with Fc-Mut18; 83 % half-Ig by SEC; also called half IL1b DA2 Fc

kon [8]: 1.9e+06 M⁻¹ s⁻¹
B8: ½ hTNFaR Fc (Fc fusion)
chain: LPAQVAFTPYAPEPGSTCRLREYYDQTAQMCCSKCSPGQHAKVFCTKTSDTVCDSCEDSTYTQLWNWVPECLSCGSRCSSDQVETQACTREQNRICTCRPGWYCALSKQEGCRLCAPLRKCRPGFGVARPGTETSDVVCKPCAPGTFSNTTSSTDICRPHQICNVVAIPGNASMDAVCTSTSPTRSMAPGAVHLPQPVSTRSQHTQPTPEPSTAPSTSFLLPMGPSPPAEGSTGDEPKSSDKTHTSPPSPAPELLGGPSVFLFPPKPKDTLMISRTPEVTCVVVDVSHEDPEVKFNWYVDGVEVHNAKTKPREEQYNSTYRVVSVLTVLHQDWLNGKEYKCKVSNKALPAPIEKTISKAKGQPREPQVYTLPPSREEMTKNQVSLTCLVKGFYPSDIAVEWESNGQPENNYKTTPPVLDSDGSFRLYSKLTVDKSRWQQGNVFSCSVMHEALHNHYTQKSLSLSPGK
notes: Half receptor-Fc with Fc-Mut18; 55 % half-Ig by SEC; also called half hTNFaR Fc

Kd (human IL-12 [9]): 0.13 nM
koff (human IL-12 [9]): 5.1e-05 s⁻¹
kon (human IL-12 [9]): 400000 M⁻¹ s⁻¹
Kd (recombinant human IL-18 [10]): 0.44 nM
koff (recombinant human IL-18 [10]): 5.9e-05 s⁻¹
kon (recombinant human IL-18 [10]): 130000 M⁻¹ s⁻¹
Neutralization of IL-12 IC50 (nM); IFN-γ release from PHA blast cells (human IL-12 [11]): 12.5 nM
Neutralization of IL-18 IC50 (nM); IFN-γ release from KG-1 cells (recombinant human IL-18 [12]): 0.918 nM
B9: ½ IL12/IL18/PGE2 TVD (other)
heavy: EVTLRESGPALVKPTQTLTLTCTFSGFSLSKSVMGVSWIRQPPGKALEWLAHIYWDDDKYYNPSLKSRLTISKDTSKNQVVLTMTNMDPVDTATYYCARRGIRSAMDYWGQGTTVTVSSASTKGPEVQLVQSGTEVKKPGESLKISCKGSGYTVTSYWIGWVRQMPGKGLEWMGFIYPGDSETRYSPTFQGQVTISADKSFNTAFLQWSSLKASDTAMYYCARVGSGWYPYTFDIWGQGTMVTVSSASTKGPEVQLVQSGAEVKKPGASVKVSCKASGYTFTKYWLGWVRQAPGQGLEWMGDIYPGYDYTHYNEKFKDRVTLTTDTSTSTAYMELRSLRSDDTAVYYCARSDGSSTYWGQGTLVTVSSASTKGPSVFPLAPSSKSTSGGTAALGCLVKDYFPEPVTVSWNSGALTSGVHTFPAVLQSSGLYSLSSVVTVPSSSLGTQTYICNVNHKPSNTKVDKKVEPKSCDKTHTSPPSPAPELLGGPSVFLFPPKPKDTLMISRTPEVTCVVVDVSHEDPEVKFNWYVDGVEVHNAKTKPREEQYNSTYRVVSVLTVLHQDWLNGKEYKCKVSNKALPAPIEKTISKAKGQPREPQVYTLPPSREEMTKNQVSLTCLVKGFYPSDIAVEWESNGQPENNYKTTPPVLDSDGSFRLYSKLTVDKSRWQQGNVFSCSVMHEALHNHYTQKSLSLSPGK
light: DIVMTQSPDSLAVSLGERATINCKASQSVSNDVAWYQQKPGQPPKLLIYYASNRYTGVPDRFSGSGSGTDFTLTISSLQAEDVAVYYCQQDYNSPWTFGGGTKVEIKRTVAAPEIVMTQSPATLSVSPGERATLSCRASESISSNLAWYQQKPGQAPRLFIYTASTRATDIPARFSGSGSGTEFTLTISSLQSEDFAVYYCQQYNNWPSITFGQGTRLEIKRTVAAPDVLMTQTPLSLPVTPGEPASISCTSSQNIVHSNGNTYLEWYLQKPGQSPQLLIYKVSNRFSGVPDRFSGSGSGTDFTLKISRVEAEDVGVYYCFQVSHVPYTFGGGTKVEIKRTVAAPSVFIFPPSDEQLKSGTASVVCLLNNFYPREAKVQWKVDNALQSGNSQESVTEQDSKDSTYSLSSTLTLSKADYEKHKVYACEVTHQGLSSPVTKSFNRGEC
notes: Half TVD with hCg1-Mut18 (F405R, C226S, C229S); 78 % by SEC; also called Half IL12/IL18/PGE2 TVD; IL12/IL18/PGE2 TVD half-Ig
